Test results taken from the supplement of paper PMC7877785.
± gives the uncertainty stated by the source.

Assay: self-splicing fitness, log relative to wild type (ln ratio); higher = more splicing; Tetrahymena group I intron in knt gene, E. coli kanamycin selection, DiMSum; sequences stand for … in CUCUCU…GGAGGGAAAAGUUAUCAGGCAUGCACCUGGUAGCUAGUCUUUAAACCAAUAGAUUGCAUCGGUUUAAAAGGCAAGACCGUCAAAUUGCGGGAAAGGGGUCAACAGCCGUUCAGUACCAAGUCUCAGGGGAAACUUUGAGAUGGCCUUGCAAAGGGUAUGGUAAUAAGCUGACGGACAUGGUCCUAACCACGCAGCCAAGUCCUAAGUCAACAGAUCUUCUGUUGAUAUGGAUGCAGUUCACAGACUAAAUGUCGGUCGGGGAAGAUGUAUUCUUCUCAUAAGAUAUAGUCGGACCUCUCCUUAAUGGGAGCUAGCGGAUGAAGUGAUGCAACACUGGAGCCGCUGGGAACUAAUUUGUAUGCGAAAGUAUAUUGAUUAGUUUUGGAGUACUCGUGGUCG
Summary of the method: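 DiMSum derived fitness as the error-weighted combination of fold changes across replicates, kanamycin versus no kanamycin, normalised to wild type. E. coli BL21(DE3) held the library, which randomised all eight P1ex-region intron nucleotides within the knt kanamycin-resistance gene on pET-22b(+). Six replicate transformations grew overnight at 37°C or 30°C on LB agar with or without 25 μg/mL kanamycin, also containing 100 μg/mL carbenicillin, 50 μM IPTG and 0.2% rhamnose, and pooled colonies were amplicon-sequenced on an Illumina HiSeq 2500.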

Sequence | self-splicing fitness (ln) (30 °C) | self-splicing fitness (ln) (37 °C)
CACCAGCAAUAUUACGUUAG | -0.512 ± 0.048 | 0.279 ± 0.064
CGGAAGCAAUAUUACGUAAC |  | -2.71 ± 0.27
GUGGAGCAAUAUUACGCCGA | -3.41 ± 0.43 | -1.25 ± 0.28
GGAUAGCAAUAUUACGACCA | -0.97 ± 0.092 | -0.392 ± 0.13
CAUAAGCAAUAUUACGUAGC | -3.15 ± 0.17 | -2.96 ± 0.2
GCGGAGCAAUAUUACGUAGA | -3.84 ± 0.43 | -2.24 ± 0.35
UGCGAGCAAUAUUACGAUCG | -2.97 ± 0.27 | -1.38 ± 0.17
UGUAAGCAAUAUUACGGUUG | -1.14 ± 0.096 | -0.58 ± 0.1
GGUAAGCAAUAUUACGCUAU | -2.53 ± 0.17 | -2.05 ± 0.27
AACAAGCAAUAUUACGCAUU | -2.01 ± 0.069 | -1.32 ± 0.091
UGGGAGCAAUAUUACGGAAA | -2.04 ± 0.31 | 
UGUCAGCAAUAUUACGGUGU | -2.06 ± 0.084 | -1.13 ± 0.1
AGCUAGCAAUAUUACGCGGU | -4.02 ± 0.27 | -1.71 ± 0.13
AGCUAGCAAUAUUACGUCCG | -1.65 ± 0.23 | -0.915 ± 0.21
UAGUAGCAAUAUUACGCUAG | -1.09 ± 0.23 | 0.812 ± 0.24
GUUAAGCAAUAUUACGGUGA | -1.86 ± 0.15 | -1.09 ± 0.12
AUUAAGCAAUAUUACGUGGC | -2.43 ± 0.15 | -1.71 ± 0.16
GAGUAGCAAUAUUACGGAGG | -3.45 ± 0.36 | -0.837 ± 0.36
UCGGAGCAAUAUUACGUUGG | -2.09 ± 0.17 | -1.77 ± 0.23
CCGUAGCAAUAUUACGAACA | -2.12 ± 0.2 | -2.26 ± 0.19
UGCUAGCAAUAUUACGGAUG | -0.534 ± 0.086 | -0.268 ± 0.1
GGUCAGCAAUAUUACGCGAA | -0.889 ± 0.069 | 0.00884 ± 0.088
UGCAAGCAAUAUUACGCCCC | -0.548 ± 0.19 | -0.556 ± 0.32
UCCAAGCAAUAUUACGUUGG | -2.99 ± 0.11 | -1.89 ± 0.14
CAUCAGCAAUAUUACGCGAA | -3.13 ± 0.14 | -1.93 ± 0.12

Sequence | self-splicing fitness (ln) (30 °C) | self-splicing fitness (ln) (37 °C)
AAGUAGCAAUAUUACGUCAC | -3.26 ± 0.15 | -3.73 ± 0.22
UAGAAGCAAUAUUACGCCGA | -1.47 ± 0.32 | -1 ± 0.25
CCGAAGCAAUAUUACGCCCC | -1.26 ± 0.24 | -2.89 ± 0.47
AUGAAGCAAUAUUACGAAGC | -3.46 ± 0.18 | -1.89 ± 0.19
UGGUAGCAAUAUUACGACGU | -0.945 ± 0.12 | -0.0819 ± 0.16
AUGAAGCAAUAUUACGAUUG | -2.6 ± 0.13 | -1.24 ± 0.14
AUUCAGCAAUAUUACGGAUG | -0.985 ± 0.079 | -0.448 ± 0.097
CCCGAGCAAUAUUACGUAUC | -1.94 ± 0.17 | -3.67 ± 0.36
GUAGAGCAAUAUUACGGAAC | -1.59 ± 0.3 | 
ACGUAGCAAUAUUACGCCAG | -1.59 ± 0.18 | -2.19 ± 0.45
GAACAGCAAUAUUACGGCCA | -0.58 ± 0.18 | -0.441 ± 0.22
AGCAAGCAAUAUUACGACGU | -0.267 ± 0.075 | 0.91 ± 0.093
CCAGAGCAAUAUUACGUUGU | -3.81 ± 0.2 | -3 ± 0.26
UCAAAGCAAUAUUACGGGCC | -3.12 ± 0.4 | 
GGGUAGCAAUAUUACGUUCA | 0.0201 ± 0.096 | -0.0805 ± 0.12
GCAGAGCAAUAUUACGUGGC |  | -2.09 ± 0.32
ACGAAGCAAUAUUACGUGUC | -3.76 ± 0.15 | -2.7 ± 0.17
GGCCAGCAAUAUUACGUCAA | -1.34 ± 0.31 | -2.61 ± 0.35
AGCGAGCAAUAUUACGGGUC | -2.01 ± 0.13 | -2.66 ± 0.25
GACGAGCAAUAUUACGAUGU | -3.94 ± 0.26 | -1.38 ± 0.14
CGACAGCAAUAUUACGAGCC | -3.59 ± 0.22 | -1.68 ± 0.26
CAAGAGCAAUAUUACGGCAC | -4.28 ± 0.24 | -2.53 ± 0.18
GUGAAGCAAUAUUACGUUCG | -0.236 ± 0.095 | -0.797 ± 0.1
AUCAAGCAAUAUUACGUCUC | -2.08 ± 0.087 | -1.16 ± 0.11
GGAUAGCAAUAUUACGCCGG |  | -1.28 ± 0.42

Sequence | self-splicing fitness (ln) (30 °C) | self-splicing fitness (ln) (37 °C)
GGACAGCAAUAUUACGAGCA | -0.424 ± 0.47 | -0.637 ± 0.4
CCCAAGCAAUAUUACGUUGA | -3.74 ± 0.14 | -3.04 ± 0.14
CGUCAGCAAUAUUACGAAGU | -3.92 ± 0.19 | -2.94 ± 0.21
UCUAAGCAAUAUUACGAAAA |  | -1.34 ± 0.29
CGCAAGCAAUAUUACGCAUU | -4.11 ± 0.19 | -3.12 ± 0.21
GAUUAGCAAUAUUACGCUCA | -0.572 ± 0.12 | -0.182 ± 0.17
CCCCAGCAAUAUUACGGAAG | -2.27 ± 0.088 | -1.73 ± 0.11
UCUUAGCAAUAUUACGGUAG |  | -2.11 ± 0.41
AAACAGCAAUAUUACGGAAC | -3.5 ± 0.16 | -4.05 ± 0.28
GAAAAGCAAUAUUACGAAAU | -1.74 ± 0.14 | -1.09 ± 0.16
GAGCAGCAAUAUUACGACGG | -4.27 ± 0.26 | -2.18 ± 0.17
CGGAAGCAAUAUUACGCAAG | -0.584 ± 0.18 | -1.95 ± 0.43
AAGAAGCAAUAUUACGAUAC | -2.94 ± 0.19 | -1.31 ± 0.17
AAGUAGCAAUAUUACGCUGU | -3.66 ± 0.25 | -1.87 ± 0.14
GAUAAGCAAUAUUACGGCAC | -0.252 ± 0.15 | -0.637 ± 0.17
GAGAAGCAAUAUUACGGAAG | -3.57 ± 0.16 | -2.39 ± 0.14
CCCAAGCAAUAUUACGCUAG | -2.63 ± 0.19 | -2.72 ± 0.31
UUACAGCAAUAUUACGGAAC | -2.88 ± 0.26 | -1.88 ± 0.42
GGCCAGCAAUAUUACGGGUC | -3.65 ± 0.26 | -2.41 ± 0.23
UCCUAGCAAUAUUACGUCUA |  | -2.69 ± 0.38
UGACAGCAAUAUUACGCCUG | -0.292 ± 0.1 | 0.595 ± 0.14
UCUCAGCAAUAUUACGAGUG | -0.746 ± 0.068 | 0.292 ± 0.086
ACAUAGCAAUAUUACGCCGG | -0.986 ± 0.14 | 0.077 ± 0.21
AGGUAGCAAUAUUACGCAUG | -2.022 ± 0.017 | -1.22 ± 0.034
GUAAAGCAAUAUUACGUACA | -0.0825 ± 0.078 | 0.111 ± 0.09

Sequence | self-splicing fitness (ln) (30 °C) | self-splicing fitness (ln) (37 °C)
ACUAAGCAAUAUUACGUACC | -1.05 ± 0.16 | -0.715 ± 0.2
CAUCAGCAAUAUUACGCGGC | -3.39 ± 0.2 | -2.8 ± 0.29
UACUAGCAAUAUUACGGUAG | -1.92 ± 0.11 | -1.09 ± 0.12
GUCUAGCAAUAUUACGCUCC | -1.44 ± 0.18 | 0.66 ± 0.2
UAUAAGCAAUAUUACGAUCG | -0.0932 ± 0.12 | -0.23 ± 0.13
AGUGAGCAAUAUUACGUGUU | -4.67 ± 0.46 | -3.04 ± 0.25
CACUAGCAAUAUUACGCGAA | -2.72 ± 0.19 | -2.74 ± 0.2
AAAGAGCAAUAUUACGAGCA | -2.83 ± 0.39 | -2.26 ± 0.42
CGUCAGCAAUAUUACGUGGG | -2.31 ± 0.093 | -1.7 ± 0.1
ACCCAGCAAUAUUACGGAUU | -0.86 ± 0.048 | -0.157 ± 0.061
CGUUAGCAAUAUUACGGGCC | -1.91 ± 0.18 | -1.75 ± 0.24
GGUAAGCAAUAUUACGCCGC | -3.46 ± 0.43 | -1.41 ± 0.27
CAAGAGCAAUAUUACGUUGG | -2.67 ± 0.13 | -1.78 ± 0.12
CCGCAGCAAUAUUACGACAU | -3.899 ± 0.024 | -2.94 ± 0.039
CACGAGCAAUAUUACGAAGU | -1.68 ± 0.13 | -2.23 ± 0.19
CAGGAGCAAUAUUACGAUGC |  | -2.83 ± 0.26
GACUAGCAAUAUUACGGCAG | -2.84 ± 0.14 | -2.49 ± 0.23
CACUAGCAAUAUUACGUUGC | -2.61 ± 0.22 | -1.58 ± 0.21
UGAAAGCAAUAUUACGCGUC | -2.59 ± 0.31 | -2.56 ± 0.34
CUCGAGCAAUAUUACGUCGC | -4.4 ± 0.36 | -1.12 ± 0.19
CAUAAGCAAUAUUACGAUCG | -0.428 ± 0.1 | -0.532 ± 0.11
CCACAGCAAUAUUACGAUCU | -3.57 ± 0.16 | -2.43 ± 0.16
UCGCAGCAAUAUUACGAGGG | -2.72 ± 0.11 | -1.65 ± 0.13
